Measurements published in article PMC12724136, “Design of antibody structure-guided epitope vaccines in silico to induce potent immune responses against emerging viruses” (Journal of Virology, 2025).

B1: unnamed (parent)
chain 1: MSHRLTCAYSGFSSDIHAVWVRQAAGKGLEWIAYISDSSAYIYYSQSVRGRFTISRDNSRKQVYLQMNSLTTEDSAVYYCTREGSGFAFDYWGKGTGGGGSGGGGSGGGGSVTISATGSSNIGADLSWYLQKTGETPKLLIYKASTRSSGTPPRFSGSTSGSQYTLTISGVQAEDAGDYYCLGDHGGGALTFGGGTK
chain 2: DAIGMGSIGVMLAYMVRRKC
B2: unnamed (parent)
chain 1: B1 chain 1
chain 2: NIEWGDEVDLEM
B3: unnamed (parent)
chain 1: B1 chain 1
chain 2: GYQLASEIRGTIPLSS

Variants of: B1
Assay: indirect ELISA
Details: with partner chain of the complex shown, scFv1 protein 50 µg/mL, value read at the highest peptide concentration, parent: 0.98, read off a plot

Variant	response (Binding activity)
chain 2 DAIGMGAIGAMLAYMVARKC	0.46

Same assay, conditions: with partner chain of the complex shown; peptides 50 µg/mL; scFv1 group of bars; parent: 0.98; read off a plot

Variant	response (Binding activity)
chain 2 DAIGMGAIGAMLAYMVARKC	0.55

Same assay, conditions: with partner chain of the complex shown; scFv1 50 µg/mL

Variant	EC50 (lg EC50 (µg/mL))
chain 2 DAIGMGAIGAMLAYMVARKC	3.96

Same assay, conditions: with partner chain of the complex shown; scFv1 50 µg/mL; value read at the highest peptide concentration, log10 = 2 (µg/mL); parent: 0.95; read off a plot

Variant	response (Binding activity)
chain 2 DAIGMGAIGAMLAYMVARKC	0.47

Variants of: B2
Assay: indirect ELISA
Details: with partner chain of the complex shown, scFv1 protein 50 µg/mL, value read at the highest peptide concentration, parent: 1.3, read off a plot

Variant	response (Binding activity)
chain 2 NIEAGAAVALEM	0.53

Same assay, conditions: with partner chain of the complex shown; peptides 50 µg/mL; scFv1 group of bars; parent: 1.3; read off a plot

Variant	response (Binding activity)
chain 2 NIEAGAAVALEM	0.52

Same assay, conditions: with partner chain of the complex shown; scFv1 50 µg/mL

Variant	EC50 (lg EC50 (µg/mL))
chain 2 NIEAGAAVALEM	4.17

Same assay, conditions: with partner chain of the complex shown; scFv1 50 µg/mL; value read at the highest peptide concentration, log10 = 2 (µg/mL); parent: 0.77; read off a plot

Variant	response (Binding activity)
chain 2 NIEAGAAVALEM	0.47

Variants of: B3
Assay: indirect ELISA
Details: with partner chain of the complex shown, scFv1 protein 50 µg/mL, value read at the highest peptide concentration, parent: 1.6, read off a plot

Variant	response (Binding activity)
chain 2 GAQLASEIAGTIPASS	0.63

Same assay, conditions: with partner chain of the complex shown; peptides 50 µg/mL; scFv1 group of bars; parent: 1.6; read off a plot

Variant	response (Binding activity)
chain 2 GAQLASEIAGTIPASS	0.62

Same assay, conditions: with partner chain of the complex shown; scFv1 50 µg/mL

Variant	EC50 (lg EC50 (µg/mL))
chain 2 GAQLASEIAGTIPASS	3.57

Same assay, conditions: with partner chain of the complex shown; scFv1 50 µg/mL; value read at the highest peptide concentration, log10 = 2 (µg/mL); parent: 1.9; read off a plot

Variant	response (Binding activity)
chain 2 GAQLASEIAGTIPASS	0.58
